{"source": "patent US20100184658A1", "about": "(published 2010); further: test concentration or dose not given here", "assay_in_all_cases": "cell-based or functional assay", "key": {"[1]": {"target": "TEK (Tie2) Tyrosine kinase, endothelial (UniProt Q02763 771-1124, limits assumed)", "sequence (Q02763 771-1124 limits assumed)": "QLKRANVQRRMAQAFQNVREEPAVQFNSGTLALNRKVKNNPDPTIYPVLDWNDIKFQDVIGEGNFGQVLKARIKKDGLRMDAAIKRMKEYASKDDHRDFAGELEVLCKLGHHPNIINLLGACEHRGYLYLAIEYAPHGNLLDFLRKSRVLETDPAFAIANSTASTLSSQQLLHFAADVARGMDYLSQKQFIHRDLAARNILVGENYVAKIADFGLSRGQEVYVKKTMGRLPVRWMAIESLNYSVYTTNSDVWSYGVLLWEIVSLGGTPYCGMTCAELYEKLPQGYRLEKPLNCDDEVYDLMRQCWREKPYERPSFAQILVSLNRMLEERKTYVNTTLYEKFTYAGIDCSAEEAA"}, "DAPK3 (ZIPK)": {"target": "DAPK3 (ZIPK) (UniProt O43293 1-454, limits assumed)", "sequence (O43293 whole entry)": "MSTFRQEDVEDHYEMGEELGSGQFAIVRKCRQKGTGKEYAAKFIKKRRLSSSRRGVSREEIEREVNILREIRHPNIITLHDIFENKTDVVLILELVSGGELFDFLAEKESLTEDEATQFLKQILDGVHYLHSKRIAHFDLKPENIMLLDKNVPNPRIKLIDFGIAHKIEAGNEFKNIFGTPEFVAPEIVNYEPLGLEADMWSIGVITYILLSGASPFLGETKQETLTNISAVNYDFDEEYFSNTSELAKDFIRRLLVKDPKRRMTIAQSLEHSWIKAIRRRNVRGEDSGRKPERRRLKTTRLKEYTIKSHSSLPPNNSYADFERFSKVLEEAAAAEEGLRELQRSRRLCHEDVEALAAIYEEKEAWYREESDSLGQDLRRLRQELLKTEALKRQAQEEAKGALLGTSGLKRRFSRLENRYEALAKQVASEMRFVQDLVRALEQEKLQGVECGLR"}, "PIM1 Pim-1 oncogene": {"target": "PIM1 Pim-1 oncogene (UniProt P11309 1-313, limits assumed)", "sequence (P11309 whole entry)": "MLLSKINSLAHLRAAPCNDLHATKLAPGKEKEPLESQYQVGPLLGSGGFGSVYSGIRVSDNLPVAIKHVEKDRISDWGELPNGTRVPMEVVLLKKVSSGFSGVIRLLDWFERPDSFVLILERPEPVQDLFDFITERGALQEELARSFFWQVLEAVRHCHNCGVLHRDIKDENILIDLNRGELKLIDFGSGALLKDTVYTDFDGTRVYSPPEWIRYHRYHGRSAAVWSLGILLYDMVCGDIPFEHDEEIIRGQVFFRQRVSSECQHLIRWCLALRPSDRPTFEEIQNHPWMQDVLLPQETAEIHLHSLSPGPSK"}, "PASK": {"target": "PASK (UniProt Q96RG2 879-1323, limits assumed)", "sequence (Q96RG2 879-1323 limits assumed)": "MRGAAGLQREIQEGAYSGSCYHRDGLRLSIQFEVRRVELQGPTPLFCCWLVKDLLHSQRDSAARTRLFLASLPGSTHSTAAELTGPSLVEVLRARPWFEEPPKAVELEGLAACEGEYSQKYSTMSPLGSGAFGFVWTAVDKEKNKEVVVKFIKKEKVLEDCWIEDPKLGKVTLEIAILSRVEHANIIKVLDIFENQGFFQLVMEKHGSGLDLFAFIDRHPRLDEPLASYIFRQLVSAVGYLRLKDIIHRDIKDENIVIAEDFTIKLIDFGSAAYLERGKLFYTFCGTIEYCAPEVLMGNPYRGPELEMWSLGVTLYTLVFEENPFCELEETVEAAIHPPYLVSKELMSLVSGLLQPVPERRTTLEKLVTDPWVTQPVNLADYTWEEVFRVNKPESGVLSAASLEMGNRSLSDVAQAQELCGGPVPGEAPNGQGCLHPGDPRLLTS"}, "PRKG2 (PKG2)": {"target": "T1, PRKG2 (PKG2) (UniProt Q13237 1-762, limits assumed)", "T1 sequence (looked up)": "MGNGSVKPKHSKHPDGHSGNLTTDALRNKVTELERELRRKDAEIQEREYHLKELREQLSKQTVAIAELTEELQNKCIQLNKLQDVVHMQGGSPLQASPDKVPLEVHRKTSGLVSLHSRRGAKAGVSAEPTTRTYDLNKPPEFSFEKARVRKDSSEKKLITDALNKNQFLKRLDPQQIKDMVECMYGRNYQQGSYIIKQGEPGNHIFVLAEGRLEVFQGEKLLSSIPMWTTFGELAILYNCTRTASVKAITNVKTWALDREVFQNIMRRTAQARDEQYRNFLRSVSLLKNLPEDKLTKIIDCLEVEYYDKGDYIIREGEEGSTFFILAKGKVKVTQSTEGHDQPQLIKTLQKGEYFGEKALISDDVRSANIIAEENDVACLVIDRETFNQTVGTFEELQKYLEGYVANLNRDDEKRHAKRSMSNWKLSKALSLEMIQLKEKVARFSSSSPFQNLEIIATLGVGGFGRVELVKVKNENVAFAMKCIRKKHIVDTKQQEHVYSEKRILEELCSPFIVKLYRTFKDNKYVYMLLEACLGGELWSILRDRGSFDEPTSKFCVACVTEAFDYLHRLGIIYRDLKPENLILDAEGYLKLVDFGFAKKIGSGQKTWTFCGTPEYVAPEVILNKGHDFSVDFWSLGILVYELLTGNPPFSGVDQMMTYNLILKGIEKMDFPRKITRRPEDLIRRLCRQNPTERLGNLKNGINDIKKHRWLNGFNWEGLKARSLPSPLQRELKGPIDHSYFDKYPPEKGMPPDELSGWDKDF"}, "[2]": {"target": "MAP3K8 (COT) Mitogen-activated protein kinase kinase kinase 8 (UniProt P41279 30-397, limits assumed)", "sequence (P41279 30-397 limits assumed)": "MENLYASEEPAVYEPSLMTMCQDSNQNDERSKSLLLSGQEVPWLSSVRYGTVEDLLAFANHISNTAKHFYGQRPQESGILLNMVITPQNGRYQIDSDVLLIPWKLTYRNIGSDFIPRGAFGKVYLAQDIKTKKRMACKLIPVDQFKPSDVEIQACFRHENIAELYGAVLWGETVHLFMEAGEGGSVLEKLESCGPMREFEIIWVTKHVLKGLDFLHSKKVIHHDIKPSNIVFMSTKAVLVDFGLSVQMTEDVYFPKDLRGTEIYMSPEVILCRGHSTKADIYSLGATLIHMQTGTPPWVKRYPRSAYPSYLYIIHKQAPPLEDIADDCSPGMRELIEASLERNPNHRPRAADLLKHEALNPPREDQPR"}, "[3]": {"target": "MAPK14 (p38 alpha) Mitogen-activated protein kinase 14 (UniProt Q16539 1-360)", "sequence (Q16539 whole entry)": "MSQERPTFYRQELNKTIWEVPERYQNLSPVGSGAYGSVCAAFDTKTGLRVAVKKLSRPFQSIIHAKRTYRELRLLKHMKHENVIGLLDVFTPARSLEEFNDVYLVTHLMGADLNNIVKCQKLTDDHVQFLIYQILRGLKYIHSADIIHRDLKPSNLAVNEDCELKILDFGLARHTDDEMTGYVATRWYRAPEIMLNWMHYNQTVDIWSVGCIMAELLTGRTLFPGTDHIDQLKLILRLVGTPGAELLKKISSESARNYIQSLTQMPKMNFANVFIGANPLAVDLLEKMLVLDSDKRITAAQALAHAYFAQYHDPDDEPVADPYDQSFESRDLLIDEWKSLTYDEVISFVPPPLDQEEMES"}, "[4]": {"target": "T2, SGK (SGK1) Serum/glucocorticoid regulated kinase (human (printed as (h)), UniProt O00141 60-431, limits assumed)", "T2 sequence (looked up)": "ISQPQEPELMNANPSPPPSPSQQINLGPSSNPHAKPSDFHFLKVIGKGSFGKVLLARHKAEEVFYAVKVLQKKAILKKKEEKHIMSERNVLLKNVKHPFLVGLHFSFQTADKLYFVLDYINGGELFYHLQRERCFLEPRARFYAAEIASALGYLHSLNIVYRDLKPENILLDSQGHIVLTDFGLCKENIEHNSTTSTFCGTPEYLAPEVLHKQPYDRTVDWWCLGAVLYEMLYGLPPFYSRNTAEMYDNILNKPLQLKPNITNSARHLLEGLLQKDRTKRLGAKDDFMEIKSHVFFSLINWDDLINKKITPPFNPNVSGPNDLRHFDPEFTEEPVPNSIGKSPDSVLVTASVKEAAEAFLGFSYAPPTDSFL"}, "[5]": {"target": "SYK Spleen tyrosine kinase (UniProt P43405 1-635, limits assumed)"}, "[6]": {"target": "RPS6KA1 (RSK1) Ribosomal protein S6 kinase, 90 kDa, polypeptide 1 (UniProt Q15418 1-735, limits assumed)", "sequence (Q15418 whole entry)": "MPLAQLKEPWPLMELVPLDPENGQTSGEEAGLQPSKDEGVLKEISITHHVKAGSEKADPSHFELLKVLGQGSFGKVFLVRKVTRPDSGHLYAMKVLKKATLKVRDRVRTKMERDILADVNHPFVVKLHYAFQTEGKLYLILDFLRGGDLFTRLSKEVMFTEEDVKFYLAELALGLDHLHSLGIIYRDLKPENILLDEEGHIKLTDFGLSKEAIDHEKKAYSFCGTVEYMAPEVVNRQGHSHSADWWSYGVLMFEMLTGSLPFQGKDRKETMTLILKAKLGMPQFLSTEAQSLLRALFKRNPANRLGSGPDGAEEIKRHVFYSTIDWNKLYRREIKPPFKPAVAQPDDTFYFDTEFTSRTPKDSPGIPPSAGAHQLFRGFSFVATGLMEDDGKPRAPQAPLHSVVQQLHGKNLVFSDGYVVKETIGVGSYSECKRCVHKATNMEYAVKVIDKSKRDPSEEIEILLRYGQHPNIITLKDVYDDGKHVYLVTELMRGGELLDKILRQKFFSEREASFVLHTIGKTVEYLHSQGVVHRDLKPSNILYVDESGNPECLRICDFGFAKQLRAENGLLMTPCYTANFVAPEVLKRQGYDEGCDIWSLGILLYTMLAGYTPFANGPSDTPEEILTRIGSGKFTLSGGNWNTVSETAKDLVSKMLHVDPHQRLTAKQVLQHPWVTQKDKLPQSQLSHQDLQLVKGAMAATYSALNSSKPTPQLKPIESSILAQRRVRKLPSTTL"}, "[7]": {"target": "NEK6 NIMA (never in mitosis gene a)-related kinase 6 (UniProt Q9HC98 1-313, limits assumed)", "sequence (Q9HC98 whole entry)": "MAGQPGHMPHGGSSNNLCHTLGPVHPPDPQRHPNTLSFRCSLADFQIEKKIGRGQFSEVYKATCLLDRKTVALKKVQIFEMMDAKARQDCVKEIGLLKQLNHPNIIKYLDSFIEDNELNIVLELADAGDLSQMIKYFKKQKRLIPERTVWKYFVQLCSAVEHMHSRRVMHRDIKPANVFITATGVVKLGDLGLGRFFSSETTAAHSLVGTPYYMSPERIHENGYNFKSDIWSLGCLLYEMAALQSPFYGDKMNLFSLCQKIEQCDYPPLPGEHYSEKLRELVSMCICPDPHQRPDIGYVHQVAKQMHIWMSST"}, "[8]": {"target": "T3, MAP4K2 (GCK) Mitogen-activated protein kinase kinase kinase kinase 2 (UniProt Q12851 1-820, limits assumed)", "T3 sequence (looked up)": "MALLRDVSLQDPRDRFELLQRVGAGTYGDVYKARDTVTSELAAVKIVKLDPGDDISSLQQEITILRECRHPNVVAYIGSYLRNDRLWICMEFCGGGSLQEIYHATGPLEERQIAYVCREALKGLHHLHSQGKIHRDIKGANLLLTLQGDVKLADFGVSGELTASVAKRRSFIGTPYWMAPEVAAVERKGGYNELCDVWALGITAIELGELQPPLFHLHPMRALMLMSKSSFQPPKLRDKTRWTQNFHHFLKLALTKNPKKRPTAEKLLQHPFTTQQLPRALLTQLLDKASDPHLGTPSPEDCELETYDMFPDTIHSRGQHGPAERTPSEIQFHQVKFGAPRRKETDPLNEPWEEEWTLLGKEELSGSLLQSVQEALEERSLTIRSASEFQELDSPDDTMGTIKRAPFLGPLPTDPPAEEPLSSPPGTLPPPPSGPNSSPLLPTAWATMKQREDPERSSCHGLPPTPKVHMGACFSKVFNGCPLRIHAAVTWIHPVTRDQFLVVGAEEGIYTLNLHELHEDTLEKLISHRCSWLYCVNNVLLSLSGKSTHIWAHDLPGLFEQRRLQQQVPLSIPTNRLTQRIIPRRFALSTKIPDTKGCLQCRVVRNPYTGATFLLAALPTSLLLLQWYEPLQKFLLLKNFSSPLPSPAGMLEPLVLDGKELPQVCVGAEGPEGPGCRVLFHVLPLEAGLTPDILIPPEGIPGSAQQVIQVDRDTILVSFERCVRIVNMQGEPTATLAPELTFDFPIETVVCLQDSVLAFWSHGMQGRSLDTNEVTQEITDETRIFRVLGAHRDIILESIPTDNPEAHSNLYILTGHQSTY"}}}
{"binder": "SGRPPMIVWFNRPFLIAVSHTHGQTILFMAKVINPVGA", "note": "[D3 peptide]", "values": [{"measurement": "% Inhibition mean", "setting": "[1]", "result": 67, "unit": "%"}, {"measurement": "% Inhibition mean", "setting": "DAPK3 (ZIPK)", "result": 62, "unit": "%"}, {"measurement": "% Inhibition mean", "setting": "PIM1 Pim-1 oncogene", "result": 89, "unit": "%"}, {"measurement": "% Inhibition mean", "setting": "PASK", "result": 80.8, "unit": "%"}, {"measurement": "% Inhibition mean", "setting": "PRKG2 (PKG2)", "result": 101, "unit": "%"}, {"measurement": "% Inhibition mean", "setting": "[2]", "result": 98.6, "unit": "%"}, {"measurement": "% Inhibition mean", "setting": "[3]", "result": 83, "unit": "%"}, {"measurement": "% Inhibition mean", "setting": "[4]", "result": 100, "unit": "%"}, {"measurement": "% Inhibition mean", "setting": "[5]", "result": 54, "unit": "%"}, {"measurement": "% Inhibition mean", "setting": "[6]", "result": 98.3, "unit": "%"}, {"measurement": "% Inhibition mean", "setting": "[7]", "result": 97.4, "unit": "%"}, {"measurement": "% Inhibition mean", "setting": "[8]", "result": 98.4, "unit": "%"}]}
